Here are results for one molecule from patent publication US20200407436A1 (published 2020).

For experiment [1], the target named is T1, mature human TGF-beta 1 (human, UniProt P01137 279-390). Briefly: cell-based or functional assay.
The target in experiment [2] is T2, mature human TGF-beta 3 (human, UniProt P10600 301-412).
T2 sequence: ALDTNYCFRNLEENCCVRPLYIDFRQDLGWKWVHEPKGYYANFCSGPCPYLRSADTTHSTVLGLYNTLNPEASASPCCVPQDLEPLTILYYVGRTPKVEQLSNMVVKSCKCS
Description: cell-based or functional assay.

Experiment [3] addresses T3, mature human TGF-beta 2 (human, UniProt P61812 303-414).
T3 sequence: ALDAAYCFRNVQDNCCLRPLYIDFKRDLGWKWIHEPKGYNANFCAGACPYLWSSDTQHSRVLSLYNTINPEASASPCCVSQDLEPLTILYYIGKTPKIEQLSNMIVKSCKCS
Briefly: cell-based or functional assay.

The target of experiment [4] is T1, mature human TGF-beta 1. Briefly: cell-based or functional assay. The source holds these as a separate data set.
Experiment [5] concerns the target T1, mature human TGF-beta 1. Description: SPR Biacore T200, human TGF-beta amine-coupled (~20 RU), E. coli derived Fab as analyte; heterogeneous fit, component 1 (KD1; believed occluded). The protocol: (§1) Human TGF-β isoforms 1, 2, and 3 (Peprotech) were immobilised on CMS Series S chip via amine coupling chemistry on Flowcell 2, 3 and 4 (respectively) to a level of approximately 20 RU. HBS-EP buffer (10 mM HEPES pH 7.4, 0.15 M NaCl, 3 mM EDTA, 0.05% Surfactant P20, GE Healthcare) was used as the running buffer. […] The surface was regenerated by 2×10 μL injection of 10 mM HCl at a flowrate of 10 uL/min.
(§2) Background subtraction binding curves were analysed using the T200 evaluation software (version 1.0; GE Healthcare) following standard procedures. Kinetic parameters were determined using heterogeneous fitting algorithm with RI=0), as described in Example 3, and the values are provided in Table 4.
Background: Surface plasmon resonance follows binding to a sensor surface in real time, without labels.

Experiment [6] addresses T2, mature human TGF-beta 3. Described as above. On the procedure:
as §1, §2

Experiment [7] deals with T3, mature human TGF-beta 2. The description is as above. The protocol:
as §1, §2

Experiment [8] has as its target T1, mature human TGF-beta 1. Briefly: SPR Biacore T200, human TGF-beta amine-coupled (~20 RU), E. coli derived Fab as analyte; heterogeneous fit, component 2 (kd2; believed unoccluded). The protocol:
as §1, §2

For experiment [9], the target named is T2, mature human TGF-beta 3. Described as above. The protocol: as §1, §2
In experiment [10] the target is T3, mature human TGF-beta 2. The description is as above. The protocol: as §1, §2

T1 sequence (P01137 279-390 limits assumed): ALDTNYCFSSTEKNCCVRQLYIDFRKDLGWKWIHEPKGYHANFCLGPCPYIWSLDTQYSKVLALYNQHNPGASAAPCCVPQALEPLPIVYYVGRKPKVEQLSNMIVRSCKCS

B1: humanised antibody 4856 Fab graft gL3gH13 (Fab, V domains shown)
VH: EVQLVESGGGLVKPGGSLRLSCAASGFSLSSYDMSWVRQAPGKGLEWIGIIYGGSGSTWYASWAKGRFTISRDSAKNSVYLQMNSLRAEDTAVYYCARGRDAGAGGSRNGYSLWGQGTLVTVSS
VL: AYDMTQSPSTLSASVGDRVTITCQASESIYSGLAWYQQKPGKAPKLLIYAASDLASGVPSRFSGSGSGTEYTLTISSLQPDDFATYYCQQTWTDGGIDNPFGGGTKVEIKR
notes: Human gamma-1 CH1 (G1m17) and human C-kappa (K1m3); also called 4856gL3gH13
As usually defined, the Kd is the free concentration of one partner at which half of the binding sites on the other are occupied at equilibrium, for simple one-to-one binding. The koff is the rate constant with which the complex falls apart. A high value points to fast dissociation. As to B1, the “Geometric mean IC50, HEK-Blue TGF-beta reporter gene assay” value (shortened to “Geometric mean IC50”) in experiment [1] is 0.074 nM. Moreover, the “Geometric mean IC50” value in experiment [2] came to 0.475 nM. Besides, the “Geometric mean IC50” value in experiment [3] was 0.01 nM. Moreover, in experiment [4], the “Geo Mean IC50, Collagen I &III deposition, RPTEC mono-culture + TGFB1” value came to 11.2 nM; the “Geo Mean IC50, Collagen V deposition, RPTEC mono-culture + TGFB1” value was found to be 43.7 nM; the “Geo Mean IC50, Fibronectin deposition, RPTEC mono-culture + TGFB1” value was found to be 19.2 nM; the “IC50 (N = 1), Collagen I &III deposition, RPTEC mono-culture + TGFB1” value came out at 5.1 nM. Moreover, in experiment [4], the “IC50 (N = 1), Collagen V deposition, RPTEC mono-culture + TGFB1” value turned out to be 13.1 nM; the “IC50 (N = 1), Fibronectin deposition, RPTEC mono-culture + TGFB1” value was 12.6 nM; the “IC50 (N = 2), Collagen I &III deposition, RPTEC mono-culture + TGFB1” value turned out to be 13.8 nM; the “IC50 (N = 2), Collagen V deposition, RPTEC mono-culture + TGFB1” value came out at 92.1 nM. In experiment [4], the “IC50 (N = 2), Fibronectin deposition, RPTEC mono-culture + TGFB1” value was 57.4 nM; the “IC50 (N = 3), Collagen I &III deposition, RPTEC mono-culture + TGFB1” value was determined as 19.8 nM; the “IC50 (N = 3), Collagen V deposition, RPTEC mono-culture + TGFB1” value was found to be 69.4 nM; the “IC50 (N = 3), Fibronectin deposition, RPTEC mono-culture + TGFB1” value was found to be 9.8 nM. Moreover, binding in [5] was characterised by a dissociation constant (Kd) of 9.48 nM. Also, in [6], the Kd is 15.7 nM. Moreover, the Kd in experiment [7] is 3.67 nM. Further, the koff in experiment [8] amounted to 5.56e-05 s⁻¹. The koff in experiment [9] came out at 0.00339 s⁻¹. This molecule also gave a koff in experiment [10] of 0.00017 s⁻¹.
